Laboratory results taken from patent US20050277575A1, “Therapeutic compositions and methods for treating diseases that involve angiogenesis” (priority 2004, published 2005).
Where “and” joins values, the source holds several entries; their conditions need not be identical. Identical values can stand only once. Like-named read-outs stand apart in the source and are kept apart here. Where a SMILES comes first, the peptide text is derived from it.

Assays:
S100A4 [1] = biological target: T1, S100A4 (Homo sapiens, UniProt P26447); assay: Modulation of S100A4 dependent tPA-mediated conversion of plasminogen to plasmin by peptides and chimera; type: biochemical; settings: for IC50: peptides titrated 0.1-100 μM, 1 μM S100A4, read-out: IC50 for inhibition of accelerating effect of S100A4 on t-PA-dependent conversion of plasminogen to plasmin
T1 construct: GST (N); made in house; host or cells: E. coli ER2507
Protocol: (§1) The effects of peptide SEQ ID 6, peptide SEQ ID 38 and chimera SEQ ID 39 on acceleration oft-PA-mediated conversion of plasminogen to plasmin induced by S100A4 were measured. The kinetics of t-PA-mediated plasminogen activation were determined by measuring the amidolytic activity of plasmin formed during activation of plasminogen. All the experiments were done in 100 μl volume in 96-well plates in triplicates. Glu-plasminogen (Calbiochem) at the concentration of 100 nM was preincubated at 25° C. for 1 h in the presence or absence of 1 μM recombinant S100A4 in a buffer consisting of 50 mM Tris-HCl, pH 7.4, 100 mM NaCl and 5 mM CaCl2 or 5 mM EGTA. In some experiments, different concentrations of peptides or chimera were preincubated together with proteins. The reaction was initiated by addition of 5 nM t-PA (Calbiochem) and 125 μM chromogenic plasmin substrate, Chromozym PL (Roche). The reactions were monitored at 405 nm for 1.5 h in a SPECTRAmax PLUS^384 microplate spectrophotometer (Molecular Devices) under control of the SOFTmax PRO kinetic program (Molecular Devices). The initial rates of plasmin generation, during the first 10-15 min, were calculated using linear regression analysis of plots of A405 nm versus time 2. The initial rates of plasmin generation were reported in units (K) of A405 nm/min^2×10^3. […] The titration data were analyzed with the four-parameter logistic equation K=(A−D)/(1+(x/C)^B)D. If A, asymptotic minimum, =0, this equation is converted to the Michaelis-Menten equation K=D/(1+(C/[S])^B), where [S] is substrate concentration, D=Vmax, C=Km, and B is the Hill coefficient.
Peptides SEQ ID 6 and SEQ ID 38 inhibited the accelerating effect of S100A4 on t-PA-dependent conversion of plasminogen to plasmin in concentration—dependent manner.
On the other hand, chimera SEQ ID 39 additionally accelerated plasmin formation already accelerated by S100A4.

S100A4 [2] = biological target: T1, S100A4; assay: Fluorescence polarization assay of peptide binding with S100A4; settings: for change of fluorescence polarization upon adding S100A4: same procedure and conditions as for SEQ ID NO 7
Protocol: The following working buffers have been prepared:
TBS-EGTA: 10 mM TRIS buffer containing 150 mM NaCl, 0.05% bovine serum albumine (BSA), 1 mM EGTA
TBS-Ca: 10 mM TRIS buffer containing 150 mM NaCl, 0.05% bovine serum albumine (BSA), 1 mM CaCl2
10 mM solution of peptide SEQ ID NO 7 in DMSO was diluted with in either TBS-EGTA or TBS-Ca to obtain final peptide concentration 20 nM. Samples of these peptide solutions were placed in 384 well plate (Costar No. 3710), 45 microliters per well. Fluorescence polarization of such samples was determined using Perkin Elmer Wallac EnVision 2100 Multilabel Reader equipped with excitation filter 485 nm and emission filters 535 nm for each channel.
S100A4 has been diluted by either TBS-EGTA or by TBS-Ca to obtain a series of solutions of such concentrations that after adding 5 microliters each solution to 45 microliter peptide samples the final concentration of S100A4 was one of following: 0, 10, 30, 100, 300, 1000, 3000, or 10000 nM. Each sample was prepared in triplicate. The samples were mixed carefully while adding the protein to the peptide, and then they were incubated for 1 h at room temperature. The fluorescence polarization of the samples was determined using the same conditions as for the peptide samples before adding S100A4, and the change of fluorescence polarization of the peptide SEQ ID NO 7 upon adding S100A4 was calculated individually for each sample. The results, average of triplicates, are presentsd on the FIG. 6. The apparent binding constant of peptide SEQ ID NO 7 binding to S100A4 is 236 nM.
The same procedure and conditions have been applied to test binding of peptide SEQ ID NO 9, and peptide SEQ ID NO 10, to S100A4.

[3] = tested on: Human cerebral endothelial cells (HCEC); assay: Capillary tube formation in Matrigel, S100A4 induced angiogenesis; type: cell-based; settings: primary HCEC in Matrigel
From the text: Human cerebral endothelial cells (HCEC) were isolated using previously described protocols (Stanimirovic, D., P. Morley, et al. (1996). “Angiotensin II-induced fluid phase endocytosis in human cerebromicrovascular endothelial cells is regulated by the inositol-phosphate signaling pathway.” J Cell Physiol 169(3): 455-67.). Purity of HCEC cultures generated by these procedures was routinely assessed by the immunocytochemical staining for Factor VIII-related antigen and the lack of staining for smooth muscle β-actin, and is estimated to be >95%. The morphological, phenotypic, biochemical and functional characteristics of these HCEC cultures have been described in detail previously (Muruganandam, A., L. M Herx, et al. (1997). “Development of immortalized human cerebromicrovascular endothelial cell line as an in vitro model of the human blood-brain barrier.” Faseb J 11(13): 1187-97).
HCEC were seeded (8×10^4 cells) on a semi-solid basement membrane matrix, Matrigel™ (Collaborative Biomedical Products, Bedford, Mass.)-coated 24-well plates and exposed to serum-free media containing various treatments. […] Confocal apertures for each recorded wavelength were adjusted to a full width half maximum of 20 μm. […] Eight to 32 individual optical sections were collected and the average was calculated. […]

[4] = biological target: T2, t-PA-mediated plasminogen activation (Homo sapiens, UniProt P00750); assay: t-PA-dependent conversion of plasminogen to plasmin, effect of S100A4 (Example 11); type: biochemical; settings: with or without 2.5 μM S100A4; for Vmax: 150 nM plasminogen, 5 nM t-PA
T2 construct: purchased Calbiochem
Protocol: Non-active plasminogen can be converted to active protease plasmin by tissue type (t-PA) or urokinase type (u-PA) plasminogen activators. Except for its well-known fibrinolytic activity, plasmin also directly and indirectly, by activation of matrix metalloproteinases (MMPs), participates in the degradation of extracellular matrix that is important for the angiogenesis and tumor invasion. The kinetics of t-PA-mediated plasminogen activation was determined by measuring amidolytic activity of the plasmin generated during plasminogen activation. The reaction was performed with the plasmin substrate Chromozyme PL, tosyl-glycyl-prolyl-lysin-4-nitranilide-acetate (Roche) in the final concentration of 125 μM in a buffer consisting of 50 mM Tris-HCl, pH 7.4, 100 mM NaCl, 5 mM of CaCl2 or 5 mM of EGTA, and 150 nM of [Glu] plasminogen (Calbiochem). The reaction was preincubated with or without 2.5 μM S100A4 at 24 C° for 1 h in 96-well plates. The reaction was initiated by addition of t-PA (Calbiochem) up to 5 nM concentration, final volume 100 μl. Kinetic of substrate hydrolysis was measured at 2 min intervals at 405 nm in Spectramax Plus 384 spectrophotometer (Molecular Devices). Analysis of kinetics curves (Vmax, time to Vmax, and initial slope of kinetic data converted to A405 versus time^2) was performed with the help of Softmax PRO program (Molecular Devices).
Kinetics of plasminogen to plasmin conversion consists of three parts. As shown in FIG. #3 curves 1 and 2 for t-PA, during first 1500 s the reaction is second order that corresponds to conversion of plasminogen to plasmin and consequent cleavage of chromogenic substrate by plasmin. The second part of reaction is linear, for which Vmax can be calculated. It starts after total conversion of plasminogen to plasmin and corresponds to cleavage of chromogenic substrate by plasmin with constant rate. In the third part of reaction, after 2700 s, the reaction is slowing down that corresponds to depletion of chromogenic substrate and finally the reaction reaches a plateau when all substrate is cleaved. As follows from the comparison of curves 1 and 2, t-PA along converted plasminogen to plasmin equally efficiently in the presence or absence of calcium. Neither conversion of plasminogen to plasmin took place in the absence of t-PA no S110A4 induced such conversion by itself, curves 5 and 6. In the presence of S100A4 linear part of reaction starts substantially earlier, which means that total conversion of plasminogen to plasmin was accelerated. Kinetic parameters for t-PA along and for combination of t-PA with S100A4 are represented in Table 4. […] S100A4 accelerated conversion of plasminogen to plasmin in calcium independent manner, curves 3 and 4.

[5] = biological target: T2, t-PA-mediated plasminogen activation; assay: t-PA-mediated plasminogen conversion kinetics with and without S100A4 (Example 12); type: biochemical
Protocol: as §1
The addition of S100A4 to basal reaction (t-PA plus plasminogen) produced a significant increase in the plasminogen conversion rate. […] The stimulation of the plasminogen conversion by S100A4 was concentration-dependent with the half-maximal effect at 2.4 μM.
The kinetic parameters of t-PA-mediated plasminogen conversion were evaluated in the presence and absence of S100A4 as a function of plasminogen concentrations ranging from 3 nM to 3 μM.

T1 sequence (P26447 whole entry): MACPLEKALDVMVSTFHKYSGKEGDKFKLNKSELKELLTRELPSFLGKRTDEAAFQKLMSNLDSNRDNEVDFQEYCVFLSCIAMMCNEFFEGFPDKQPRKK
T2 sequence (P00750 36-562): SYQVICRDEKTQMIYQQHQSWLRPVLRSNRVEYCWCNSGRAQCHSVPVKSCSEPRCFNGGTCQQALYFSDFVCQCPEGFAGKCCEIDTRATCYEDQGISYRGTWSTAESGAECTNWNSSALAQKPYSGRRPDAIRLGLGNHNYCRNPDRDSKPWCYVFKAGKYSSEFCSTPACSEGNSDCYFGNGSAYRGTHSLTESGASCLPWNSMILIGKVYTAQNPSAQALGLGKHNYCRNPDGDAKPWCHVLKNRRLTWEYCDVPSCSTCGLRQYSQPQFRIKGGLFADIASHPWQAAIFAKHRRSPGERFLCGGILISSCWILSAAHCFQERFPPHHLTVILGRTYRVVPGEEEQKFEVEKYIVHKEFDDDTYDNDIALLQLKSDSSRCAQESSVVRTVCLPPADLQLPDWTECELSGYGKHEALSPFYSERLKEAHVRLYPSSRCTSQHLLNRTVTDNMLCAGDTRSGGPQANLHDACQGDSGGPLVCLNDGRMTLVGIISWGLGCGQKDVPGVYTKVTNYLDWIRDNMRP

CSCC[C@@H](NC(=O)[C@@H](CCC(=O)O)NC(=O)[C@@H](CCCNC(=N)N)NC(=O)[C@@H](Cc1c[nH]c2ccccc12)NC(=O)CNC(=O)[C@@H](C)NC(C)=O)C(=O)N[C@H](Cc1ccc(O)cc1)C(=O)N[C@H](CO)C(=O)N[C@H](C)C(=O)N[C@H](CC(C)C)C(=O)N[C@H](CO)C(=O)N[C@@H](C)C(=O)N[C@@H](CO)C(=O)N[C@H](Cc1ccc(O)cc1)C(=O)N[C@@H](C(=O)N[C@H](CCC(=O)O)C(=O)N[C@H](CCCNC(=N)N)C(=O)N[C@H](CC(C)C)C(N)=O)C(C)C [SEQ ID 38, Ac-aGwremysalsASyverl-amide] (HELM PEPTIDE1{[ac].[dA].G.[dW].[dR].[dE].[dM].[dY].[dS].[dA].[dL].[dS].A.S.[dY].[dV].[dE].[dR].[dL].[am]}$$$$V2.0)
effect on S100A4 acceleration at 15 μM peptide (S100A4 [1]): totally neglected the effect of S100A4 | IC50 (S100A4 [1]): 3.5 µM

CSCC[C@H](NC(=O)[C@H](Cc1ccc(O)cc1)NC(=O)[C@H](CO)NC(=O)[C@H](C)NC(=O)[C@H](CC(C)C)NC(=O)[C@H](CO)NC(=O)[C@H](C)NC(=O)CNC(=O)[C@H](Cc1ccc(O)cc1)NC(=O)[C@@H](NC(=O)[C@H](CCC(=O)O)NC(=O)[C@H](CCCNC(=N)N)NC(=O)[C@H](CC(C)C)NC(=O)CNC(=O)[C@H](C)NC(=O)c1ccc2c(c1)C(=O)OC21c2ccc(O)cc2Oc2cc(O)ccc21)C(C)C)C(=O)N[C@@H](CCC(=O)O)C(=O)N[C@@H](CCCNC(=N)N)C(=O)N[C@@H](Cc1c[nH]c2ccccc12)C(N)=O [SEQ ID NO 7, Fam-AGLREVYGASLASYMERW-amide] (HELM PEPTIDE1{[O=C1OC2(c3ccc(O)cc3Oc3cc(O)ccc32)c2ccc(C(=O)[*:2])cc21].A.G.L.R.E.V.Y.G.A.S.L.A.S.Y.M.E.R.W.[am]}$$$$V2.0)
Kd (S100A4 [2]; 20 nM peptide, S100A4 0-10000 nM, 1 h room temperature, TBS-EGTA or TBS-Ca, read-out: apparent binding constant of peptide binding to S100A4): 0.236 µM

Ac-AGLREVYGASLASYMERW-NH2 [SEQ ID 6, Ac-AGLREVYGASLASYMERW-amide]
inhibition of S100A4-induced formation of capillary-like tubes [3]: completely inhibit | effect on S100A4 acceleration at 15 μM peptide (S100A4 [1]): totally neglected the effect of S100A4 | IC50 (S100A4 [1]): 6 µM

Fam-aGlrevyGASlASymerw-amide [SEQ ID NO 9]
change of fluorescence polarization upon adding S100A4 (S100A4 [2]): No change of fluorescence polarization has been detected

Fam-aGwremysalsASyverl-amide [SEQ ID NO 10]
change of fluorescence polarization upon adding S100A4 (S100A4 [2]): No change of fluorescence polarization has been detected

t-PA: tissue type plasminogen activator (Calbiochem); basal reaction with plasminogen
Vmax ([4]; Ca (5 mM CaCl2)): 7.152 ± 0.130 ΔA405/t(min) * 1000 | Slope (initial rate of plasmin generation) ([4]; Ca (5 mM CaCl2)): 0.078 ΔA405/t^2(min^2) * 1000 and 0.078 ± 0.007 ΔA405/t^2(min^2) * 1000 | Time to Vmax ([4]; Ca (5 mM CaCl2)): 2200 s and 2200 ± 69 s | Vmax ([4]; EGTA (5 mM)): 8.589 ± 0.342 ΔA405/t(min) * 1000 | Slope (initial rate of plasmin generation) ([4]; EGTA (5 mM)): 0.080 ± 0.008 ΔA405/t^2(min^2) * 1000 | Time to Vmax ([4]; EGTA (5 mM)): 2102 ± 69 s | Vmax ([5]; plasminogen 3 nM to 3 μM, presence of EGTA): 1.18 | Km ([5]; plasminogen 3 nM to 3 μM, presence of EGTA, read-out: Km): 0.429 µM | Km ([5]; plasminogen 3 nM to 3 μM, read-out: Km of the t-PA-mediated plasminogen conversion): 0.429 µM | Increase in t-PA activity ([5]; presence of EGTA): 1
